Measurements reported in article PMC2910095 (Biochemistry, 2010).
Values joined by “and” are separate entries in the source; they are usually repeats but may differ in a detail not shown here. Equal entries are not always repeated.

Columns and labels:
[1] = biological target: p33/p55 complex (86 kDa, monomeric complex) (Helicobacter pylori strain 60190); experiment: negative-stain electron microscopy
[2] = biological target: purified recombinant VacA p55 domain (Helicobacter pylori strain 60190); experiment: SEC
[3] = biological target: recombinant refolded VacA p33 domain (Helicobacter pylori strain 60190); experiment: SEC
[4] = biological target: the molecule itself; experiment: negative-stain electron microscopy

In the case of “p33/p55 complex (86 kDa, monomeric complex)”, the stoichiometry N [1] is reported as 6 and 7 and 12.

With “recombinant refolded VacA p33 domain (domain or fragment)” the stoichiometry N [2] was 1 and the stoichiometry N [3] was 3.

B1: p88 VacA purified from H. pylori broth culture supernatant (natural protein)
chain: AFFTTVIIPAIVGGIATGTAVGTVSGLLGWGLKQAEEANKTPDKPDKVWRIQAGKGFNEFPNKEYDLYKSLLSSKIDGGWDWGNAATHYWIKGGQWNKLEVDMKDAVGTYKLSGLRNFTGGDLDVNMQKATLRLGQFNGNSFTSYKDSADRTTRVDFNAKNILIDNFLEINNRVGSGAGRKASSTVLTLQASEGITSSKNAEISLYDGATLNLASNSVKLNGNVWMGRLQYVGAYLAPSYSTINTSKVTGEVNFNHLTVGDHNAAQAGIIASNKTHIGTLDLWQSAGLNIIAPPEGGYKDKPNNTPSQSGAKNDKQESSQNNSNTQVINPPNSTQKTEVQPTQVIDGPFAGGKDTVVNIDRINTKADGTIKVGGFKASLTTNAAHLNIGKGGVNLSNQASGRTLLVENLTGNITVDGPLRVNNQVGGYALAGSSANFEFKAGVDTKNGTATFNNDISLGRFVNLKVDAHTANFKGIDTGNGGFNTLDFSGVTNKVNINKLITASTNVAVKNFNINELIVKTNGVSVGEYTHFSEDIGSQSRINTVRLETGTRSIFSGGVKFKSGEKLVIDEFYYSPWNYFDARNIKNVEITRKFASSTPENPWGTSKLMFNNLTLGQNAVMDYSQFSNLTIQGDFINNQGTINYLVRGGKVATLNVGNAAAMMFNNDIDSATGFYKPLIKINSAQDLIKNTEHVLLKAKIIGYGNVSTGTNGISNVNLEEQFKERLALYNNNNRMDTCVVRNTDDIKACGMAIGNQSMVNNPDNYKYLIGKAWKNIGISKTANGSKISVYYLGNSTPTENGGNTTNLPTNTTNNARFASYA
B1 was tested, and the “stoichiometry N” value [4] was 6 and 7 and 12 to 14 (2×).
